From paper PMC6874894

Tested on: CTCF
Assay: EMSA

Substance	binding signal (% increase in binding vs G allele (N1))	binding signal (% increase in binding vs G allele (N3))
50 bp probe rs150502618-A	15	
230 bp probe rs150502618-A		8
